Results as given in US20200317779A1.
Changes are numbered by the printed parent chain. Each block holds one binder with its values, some of them ahead of it.

Columns and labels:
[1] = molecular target: recombinant cynomolgus monkey CD3ε/δ heterodimer (cynomolgus monkey) (UniProt Q95LI5); test: ELISA, coated CD3ε/δ
[2] = molecular target: recombinant human CD3ε/δ heterodimer (human) (UniProt P07766); test: ELISA, coated CD3ε/δ
[3] = molecular target: recombinant cynomolgus monkey CD3ε/δ heterodimer (cynomolgus monkey) (UniProt Q95LI5); test: BLI (Octet), antigen on anti-Penta His sensor, antibody 50 nM
[4] = molecular target: recombinant human CD3ε/δ heterodimer (human) (UniProt P07766); test: as above

Chain of recombinant human CD3ε/δ heterodimer (human) (P07766 23-126, stated change not applied, chain 1 of 2): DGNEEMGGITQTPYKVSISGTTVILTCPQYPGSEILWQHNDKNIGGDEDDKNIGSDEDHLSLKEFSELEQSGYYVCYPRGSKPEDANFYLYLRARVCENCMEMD
Chain of recombinant human CD3ε/δ heterodimer (human) (P04234 22-105, stated change not applied, chain 2 of 2, further chain): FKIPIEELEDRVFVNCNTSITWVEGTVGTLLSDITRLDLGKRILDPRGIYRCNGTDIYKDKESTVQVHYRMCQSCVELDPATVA
Chain of recombinant cynomolgus monkey CD3ε/δ heterodimer (cynomolgus monkey) (Q95LI5 22-117, stated change not applied, chain 1 of 2): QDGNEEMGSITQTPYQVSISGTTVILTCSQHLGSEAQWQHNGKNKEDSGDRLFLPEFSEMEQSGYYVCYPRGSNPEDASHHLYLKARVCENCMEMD
Chain of recombinant cynomolgus monkey CD3ε/δ heterodimer (cynomolgus monkey) (Q95LI8 22-105, stated change not applied, chain 2 of 2, further chain): as the sequence (P04234 22-105, stated change not applied, chain 2 of 2, further chain) above, with I5V, N15K, I20V, S32T, D33N, I34N, T64A, S74N, V83L counted along it

Absorbance (450 nm) [1]: 2.6
Absorbance (450 nm) [2]: 0.96
Kd [3]: 27.5 nM
koff [3]: 0.00535 s⁻¹
kon [3]: 194000 M⁻¹ s⁻¹
Kd [4]: 23 nM
koff [4]: 0.00349 s⁻¹
kon [4]: 152000 M⁻¹ s⁻¹
B1: C07 (antibody, human IgG1, lambda, L234A L235A, V domains shown)
VH: EVQLVESGGGLVQPGGSLKLSCAASGFTFNTYAMNWVRQASGKGLEWVGRIRSKYNNYATYYADSVKDRFTISRDDSQSTAYLQMNSLKTEDTAVYYCVRHGNFGNSYVSWFAYWGQGTLVTVSS
VL: QAVVTQEPSLTVSPGGTVTLTCRSSTGAVTTSNYANWFQQKPGQAPRGLIGGTNKRAPWTPARFSGSLLGGKAALTLSGAQPEDEAEYYCALWYSNLWVFGGGTKLTVLG

Absorbance (450 nm) [1]: 0.076
Absorbance (450 nm) [2]: 0.098
B2: B10 (antibody, human IgG1, lambda, L234A L235A, V domains shown)
VH: B1 VH with Q78K, S79N, A81L
VL: B1 VL with F38V, G48T, G51Y, G71D

Absorbance (450 nm) [1]: 2.18
Absorbance (450 nm) [2]: 0.446
Kd [3]: 35.6 nM
koff [3]: 0.00589 s⁻¹
kon [3]: 166000 M⁻¹ s⁻¹
Kd [4]: 29.4 nM
koff [4]: 0.00317 s⁻¹
kon [4]: 108000 M⁻¹ s⁻¹
B3: C08 (antibody, human IgG1, lambda, L234A L235A, V domains shown)
VH: B1 VH
VL: B1 VL with G71D

Absorbance (450 nm) [1]: 3.01
Absorbance (450 nm) [2]: 2.53
Kd [3]: 0.533 nM
koff [3]: 0.000233 s⁻¹
kon [3]: 437000 M⁻¹ s⁻¹
Kd [4]: 0.294 nM
koff [4]: 9.6e-05 s⁻¹
kon [4]: 327000 M⁻¹ s⁻¹
B4: D15 (antibody, human IgG1, lambda, L234A L235A, V domains shown)
VH: B1 VH with A81L
VL: B1 VL with F38V

Absorbance (450 nm) [1]: 2.74
Absorbance (450 nm) [2]: 2.4
Kd [3]: 2.19 nM
koff [3]: 0.000482 s⁻¹
kon [3]: 220000 M⁻¹ s⁻¹
Kd [4]: 1.76 nM
koff [4]: 0.000284 s⁻¹
kon [4]: 162000 M⁻¹ s⁻¹
B5: E16 (antibody, human IgG1, lambda, L234A L235A, V domains shown)
VH: B1 VH with G49A, Q78K, S79N
VL: B1 VL with F38V, G71D

Absorbance (450 nm) [1]: 0.091
Absorbance (450 nm) [2]: 0.126
B6: B03 (antibody, human IgG1, lambda, L234A L235A, V domains shown)
VH: B1 VH with Q78K, S79N, A81L
VL: B1 VL with G48T

Absorbance (450 nm) [1]: 0.156
Absorbance (450 nm) [2]: 0.169
B7: B13 (antibody, human IgG1, lambda, L234A L235A, V domains shown)
VH: B1 VH with Q78K, S79N, A81L
VL: B1 VL with F38V, G51Y

Absorbance (450 nm) [1]: 2.87
Absorbance (450 nm) [2]: 2.65
Kd [3]: 0.611 nM
koff [3]: 0.000217 s⁻¹
kon [3]: 356000 M⁻¹ s⁻¹
Kd [4]: 0.446 nM
koff [4]: 0.000107 s⁻¹
kon [4]: 240000 M⁻¹ s⁻¹
B8: D16 (antibody, human IgG1, lambda, L234A L235A, V domains shown)
VH: B1 VH with A81L
VL: B1 VL with F38V, G71D

Absorbance (450 nm) [1]: 2.53
Absorbance (450 nm) [2]: 0.897
Kd [3]: 21.6 nM
koff [3]: 0.00266 s⁻¹
kon [3]: 123000 M⁻¹ s⁻¹
Kd [4]: 35 nM
koff [4]: 0.00287 s⁻¹
kon [4]: 82000 M⁻¹ s⁻¹
B9: D08 (antibody, human IgG1, lambda, L234A L235A, V domains shown)
VH: B1 VH with A81L
VL: B1 VL with G71D

Absorbance (450 nm) [1]: 2.34
Absorbance (450 nm) [2]: 0.875
Kd [3]: 21.9 nM
koff [3]: 0.00321 s⁻¹
kon [3]: 147000 M⁻¹ s⁻¹
Kd [4]: 22.2 nM
koff [4]: 0.00226 s⁻¹
kon [4]: 102000 M⁻¹ s⁻¹
B10: A08 (antibody, human IgG1, lambda, L234A L235A, V domains shown)
VH: B1 VH with Q78K, S79N
VL: B1 VL with G71D

Absorbance (450 nm) [1]: 0.072
Absorbance (450 nm) [2]: 0.086
B11: B02 (antibody, human IgG1, lambda, L234A L235A, V domains shown)
VH: B1 VH with Q78K, S79N, A81L
VL: B1 VL with G48T, G51Y, G71D

Absorbance (450 nm) [1]: 2.81
Absorbance (450 nm) [2]: 2.45
Kd [3]: 0.653 nM
koff [3]: 0.000343 s⁻¹
kon [3]: 525000 M⁻¹ s⁻¹
Kd [4]: 0.43 nM
koff [4]: 0.000162 s⁻¹
kon [4]: 376000 M⁻¹ s⁻¹
B12: C15 (antibody, human IgG1, lambda, L234A L235A, V domains shown)
VH: B1 VH
VL: B1 VL with F38V

Absorbance (450 nm) [1]: 0.143
Absorbance (450 nm) [2]: 0.138
B13: B06 (antibody, human IgG1, lambda, L234A L235A, V domains shown)
VH: B1 VH with Q78K, S79N, A81L
VL: B1 VL with G51Y, G71D

Absorbance (450 nm) [1]: 2.8
Absorbance (450 nm) [2]: 2.37
Kd [3]: 0.888 nM
koff [3]: 0.000341 s⁻¹
kon [3]: 384000 M⁻¹ s⁻¹
Kd [4]: 0.419 nM
koff [4]: 0.000112 s⁻¹
kon [4]: 268000 M⁻¹ s⁻¹
B14: C16 (antibody, human IgG1, lambda, L234A L235A, V domains shown)
VH: B1 VH
VL: B1 VL with F38V, G71D

Absorbance (450 nm) [1]: 0.102
Absorbance (450 nm) [2]: 0.127
B15: B14 (antibody, human IgG1, lambda, L234A L235A, V domains shown)
VH: B1 VH with Q78K, S79N, A81L
VL: B1 VL with F38V, G51Y, G71D

Absorbance (450 nm) [1]: 2.55
Absorbance (450 nm) [2]: 1.31
Kd [3]: 20.5 nM
koff [3]: 0.00315 s⁻¹
kon [3]: 153000 M⁻¹ s⁻¹
Kd [4]: 19.5 nM
koff [4]: 0.00232 s⁻¹
kon [4]: 119000 M⁻¹ s⁻¹
B16: A07 (antibody, human IgG1, lambda, L234A L235A, V domains shown)
VH: B1 VH with Q78K, S79N
VL: B1 VL

Absorbance (450 nm) [1]: 0.059
Absorbance (450 nm) [2]: 0.087
B17: B04 (antibody, human IgG1, lambda, L234A L235A, V domains shown)
VH: B1 VH with Q78K, S79N, A81L
VL: B1 VL with G48T, G71D

Absorbance (450 nm) [1]: 0.071
Absorbance (450 nm) [2]: 0.097
B18: B01 (antibody, human IgG1, lambda, L234A L235A, V domains shown)
VH: B1 VH with Q78K, S79N, A81L
VL: B1 VL with G48T, G51Y

Kd [3]: 0.14 nM
koff [3]: 5.3e-05 s⁻¹
kon [3]: 378000 M⁻¹ s⁻¹
Kd [4]: 0.229 nM
koff [4]: 6.01e-05 s⁻¹
kon [4]: 262000 M⁻¹ s⁻¹
B19: Mouse human chimeric SP34 IgG1 antibody (antibody, V domains shown)
VH: B1 VH with G15K, S41P, G49A, T80I, A81L, S87N, V95M
VL: QAVVTQESALTTSPGETVTLTCRSSTGAVTTSNYANWVQEKPDHLFTGLIGGTNKRAPGVPARFSGSLIGDKAALTITGAQTEDEAIYFCALWYSNLWVFGGGTKLTVLG

Absorbance (450 nm) [1]: 0.099
Absorbance (450 nm) [2]: 0.096
B20: B09 (antibody, human IgG1, lambda, L234A L235A, V domains shown)
VH: B1 VH with Q78K, S79N, A81L
VL: B1 VL with F38V, G48T, G51Y

Absorbance (450 nm) [1]: 0.094
Absorbance (450 nm) [2]: 0.132
B21: A03 (antibody, human IgG1, lambda, L234A L235A, V domains shown)
VH: B1 VH with Q78K, S79N
VL: B1 VL with G48T

Absorbance (450 nm) [1]: 0.1
Absorbance (450 nm) [2]: 0.102
B22: B05 (antibody, human IgG1, lambda, L234A L235A, V domains shown)
VH: B1 VH with Q78K, S79N, A81L
VL: B1 VL with G51Y

Absorbance (450 nm) [1]: 0.075
Absorbance (450 nm) [2]: 0.131
B23: C01 (antibody, human IgG1, lambda, L234A L235A, V domains shown)
VH: B1 VH
VL: B1 VL with G48T, G51Y

Absorbance (450 nm) [1]: 0.072
Absorbance (450 nm) [2]: 0.098
B24: B12 (antibody, human IgG1, lambda, L234A L235A, V domains shown)
VH: B1 VH with Q78K, S79N, A81L
VL: B1 VL with F38V, G48T, G71D

Absorbance (450 nm) [1]: 0.107
Absorbance (450 nm) [2]: 0.132
B25: B11 (antibody, human IgG1, lambda, L234A L235A, V domains shown)
VH: B1 VH with Q78K, S79N, A81L
VL: B1 VL with F38V, G48T

Absorbance (450 nm) [1]: 2.75
Absorbance (450 nm) [2]: 2.49
Kd [3]: 1.33 nM
koff [3]: 0.000297 s⁻¹
kon [3]: 224000 M⁻¹ s⁻¹
Kd [4]: 1.04 nM
koff [4]: 0.000206 s⁻¹
kon [4]: 197000 M⁻¹ s⁻¹
B26: F15 (antibody, human IgG1, lambda, L234A L235A, V domains shown)
VH: B1 VH with G49A, Q78K, S79N, A81L
VL: B1 VL with F38V

Absorbance (450 nm) [1]: 2.39
Absorbance (450 nm) [2]: 1.17
Kd [3]: 20 nM
koff [3]: 0.00284 s⁻¹
kon [3]: 143000 M⁻¹ s⁻¹
Kd [4]: 19 nM
koff [4]: 0.00214 s⁻¹
kon [4]: 113000 M⁻¹ s⁻¹
B27: D07 (antibody, human IgG1, lambda, L234A L235A, V domains shown)
VH: B1 VH with A81L
VL: B1 VL

Absorbance (450 nm) [1]: 2.7
Absorbance (450 nm) [2]: 2.41
Kd [3]: 1.86 nM
koff [3]: 0.00054 s⁻¹
kon [3]: 290000 M⁻¹ s⁻¹
Kd [4]: 1.74 nM
koff [4]: 0.000392 s⁻¹
kon [4]: 225000 M⁻¹ s⁻¹
B28: E15 (antibody, human IgG1, lambda, L234A L235A, V domains shown)
VH: B1 VH with G49A, Q78K, S79N
VL: B1 VL with F38V

Absorbance (450 nm) [1]: 2.85
Absorbance (450 nm) [2]: 2.46
Kd [3]: 1.37 nM
koff [3]: 0.000253 s⁻¹
kon [3]: 185000 M⁻¹ s⁻¹
Kd [4]: 0.852 nM
koff [4]: 0.00012 s⁻¹
kon [4]: 141000 M⁻¹ s⁻¹
B29: F16 (antibody, human IgG1, lambda, L234A L235A, V domains shown)
VH: B1 VH with G49A, Q78K, S79N, A81L
VL: B1 VL with F38V, G71D
